Biological target: Amyloid Beta (antigen of the Amyloid Beta ELISA) (UniProt P05067)
Assay: Amyloid Beta ELISA; purified antibodies from stable NS0 cell lines

Chain of Amyloid Beta (antigen of the Amyloid Beta ELISA) (P05067 672-713 limits assumed): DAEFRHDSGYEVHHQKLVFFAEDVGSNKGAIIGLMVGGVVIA

fold reduction of binding activity compared to chimeric control antibody C2 ChVHAF/ChVK: 2 fold
B1: humanized antibody C2 HuVH2/HuVK3 (antibody, human IgG4 S228P, kappa, V domains shown)
VH: EVQLVESGGGLVQPGGSLRLSCAASGFTFSSYGMSWVRQAPGKGLEWVASINSNGGSTYYPDSVKGRFTISRDNAKNSLYLQMNSLRAEDTAVYYCASGDYWGQGTTVTVSS
VL: DIVMTQSPLSLPVTPGEPASISCRSSQSLVYSNGDTYLHWYLQKPGQSPKLLIYKVSNRFSGVPDRFSGSGSGTDFTLKISRVEAEDVGVYYCSQSTHVPWTFGQGTKVEIKR

— patent EP2074145B1
